Values belong to the binder of their own block, whether it stands above or below them.
How the values were obtained:
Conditions in all cases: both partners purified
[1] = biological target: T1, R411A-α2 (E. coli class Ia ribonucleotide reductase subunit α2 with the R411A substitution) (E. coli, UniProt P00452 1-761, R411A); test: spectrophotometric competitive inhibition assay (enzyme activity); R411A-α2 used as the inhibitor, 10 nM to 5 μM; D2O assay buffer; relative activities in the presence of inhibitor fit to the standard Kd equation (eq. 1); average of two replicates
T1 construct: Ribonucleoside-diphosphate reductase 1 subunit alpha (α, NrdA), E. coli; GCG (Ala) inserted at position 411; the construct has an N-terminal (His)6-tag with a 10 amino acid linker; Homodimer (α2); source: E. coli, expressed from pET28a-nrdA, purified by previous protocols; pre-reduced with 30 mM DTT and 15 mM HU before use
T1 sequence: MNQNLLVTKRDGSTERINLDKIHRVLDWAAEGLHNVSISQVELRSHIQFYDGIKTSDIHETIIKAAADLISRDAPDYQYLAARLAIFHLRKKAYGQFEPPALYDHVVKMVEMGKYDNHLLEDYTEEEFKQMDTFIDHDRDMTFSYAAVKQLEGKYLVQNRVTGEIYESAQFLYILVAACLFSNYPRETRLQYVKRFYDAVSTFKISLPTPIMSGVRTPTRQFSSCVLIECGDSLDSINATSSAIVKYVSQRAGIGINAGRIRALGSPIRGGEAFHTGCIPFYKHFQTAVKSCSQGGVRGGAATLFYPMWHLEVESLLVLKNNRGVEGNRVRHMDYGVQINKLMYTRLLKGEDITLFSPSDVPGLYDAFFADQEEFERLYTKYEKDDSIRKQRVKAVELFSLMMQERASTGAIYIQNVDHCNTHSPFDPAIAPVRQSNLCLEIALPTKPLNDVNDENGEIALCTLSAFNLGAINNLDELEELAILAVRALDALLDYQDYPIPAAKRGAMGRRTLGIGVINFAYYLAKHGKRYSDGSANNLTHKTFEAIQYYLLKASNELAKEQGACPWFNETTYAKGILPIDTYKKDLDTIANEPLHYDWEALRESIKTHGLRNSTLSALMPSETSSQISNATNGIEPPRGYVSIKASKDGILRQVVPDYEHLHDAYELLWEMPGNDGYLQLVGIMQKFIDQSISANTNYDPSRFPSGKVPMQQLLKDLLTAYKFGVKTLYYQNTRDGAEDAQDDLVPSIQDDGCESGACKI

[2] = biological target: T2, R411A-α2, E. coli class Ia ribonucleotide reductase subunit α2 with R411A (E. coli, UniProt P00452 1-761, R411A); test: competitive inhibition assay; Kd for α2 mutant and wt-β2, determined in H2O and D2O buffers by the competitive inhibition assay of ref. 42; details in SI-2, Fig. S2
T2 construct: E. coli class Ia ribonucleotide reductase subunit alpha (nrdA) with R411A; a 10 amino acid linker follows the N-terminal (His)6-tag; source: pre-reduced with 30 mM DTT and 15 mM HU before use
T2 sequence (looked up): T1 sequence

[3] = biological target: T3, NH2Y731/R411A-α2, E. coli class Ia ribonucleotide reductase subunit α2 with 3-aminotyrosine at 731 and R411A (E. coli, UniProt P00452 1-761, R411A, 3-aminotyrosine (NH2Y) at 731 in place of Y731); test: as above
T3 construct: E. coli class Ia ribonucleotide reductase subunit alpha (nrdA) with R411A and the unnatural amino acid 3-aminotyrosine incorporated at position 731; a 10 amino acid linker follows the N-terminal (His)6-tag; With β2, CDP and ATP the 3-aminotyrosine at 731 is oxidised to the radical NH2Y731˙ (ND2Y731˙ in D2O); also called ND2Y731˙/R411A-α2; ND2Y731˙/R411A-α; source: pre-reduced with 30 mM DTT and …
T3 sequence (looked up): T1 sequence

Kd [1]: 900 ± 190 nM
B1: wt-β2 (E. coli class Ia ribonucleotide reductase subunit β2, wild type) (enzyme, UniProt P69924 1-376, looked up)
chain: MAYTTFSQTKNDQLKEPMFFGQPVNVARYDQQKYDIFEKLIEKQLSFFWRPEEVDVSRDRIDYQALPEHEKHIFISNLKYQTLLDSIQGRSPNVALLPLISIPELETWVETWAFSETIHSRSYTHIIRNIVNDPSVVFDDIVTNEQIQKRAEGISSYYDELIEMTSYWHLLGEGTHTVNGKTVTVSLRELKKKLYLCLMSVNALEAIRFYVSFACSFAFAERELMEGNAKIIRLIARDEALHLTGTQHMLNLLRSGADDPEMAEIAEECKQECYDLFVQAAQQEKDWADYLFRDGSMIGLNKDILCQYVEYITNIRMQAVGLDLPFQTRSNPIPWINTWLVSDNVQVAPQEVEVSSYLVGQIDSEVDTDDLSNFQL
modifications: tyrosyl radical at Y122 (1.2 Y•/β2), di-iron cofactor
notes: Ribonucleoside-diphosphate reductase 1 subunit beta (β, NrdB), E. coli, wild type; Y122 is Y123 in P69924); Homodimer (β2); source: expressed and purified by standard protocols (7000 nmol min^-1 mg^-1, 1.2 Y•/β2)

Kd [2]: 940 ± 330 nM
Kd [3]: 8 ± 1 nM
B2: wt-β2, E. coli class Ia ribonucleotide reductase subunit β2 (enzyme, UniProt P69924 1-376, looked up)
chain: B1 chain
modifications: tyrosyl radical at Y122 (1.2 Y˙/β2)
notes: E. coli class Ia ribonucleotide reductase subunit beta, with the di-iron tyrosyl radical cofactor (FeIII2–Y122˙)

Source: paper PMC5968753, “Radical transfer in E. coli ribonucleotide reductase: a NH2Y731/R411A-α mutant unmasks a new conformation of the pathway residue 731† †Electronic supplementary information (ESI) available. See DOI: 10.1039/c5sc03460d” (Chemical Science, 2015)
